Results on 72 sequences are retold here after the supplement of paper PMC10567573.

This series in a line: protein stability index of a GFP-peptide fusion (GPS, HEK-293T) (PSI 1-6); higher = more stable.
Where [1] appears, read: treatment: DMSO, c terminus: a fixed tail appended.
Where [2] appears, read: treatment: MLN4924 1 uM, 8 h, c terminus: a fixed tail appended.

± gives the standard deviation.
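Also: 24-mer peptide tiles fused after GFP, lentivirally expressed, FACS-sorted into six equal bins by GFP/DsRed ratio, decoded by Illumina sequencing, PSI is the read-weighted mean bin number.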

With AAAGLHASPMSADRVVAFMDHIRI [NR2F2], the protein stability index under setting [1] worked out at 2.25 ± 0.4 and the protein stability index under setting [2] is 2.26 ± 0.34.

As to AAARPSSCRRKQEDDRDGLLAERE [TMEM106C], the protein stability index stood at 5.18 ± 0.25 under setting [1] and 5.3 ± 0.34 under setting [2].

As for AASEAGRAMHLMKKREKQREQMEQ [FAM50A], the protein stability index by setting is: under setting [1], 5.05 ± 0.25; under setting [2], 4.87 ± 0.17. AAVPGTQLSPSPTPASQSPKKPPA [SNAP91] had a protein stability index under setting [1] of 5.44 ± 0.25 and a protein stability index under setting [2] of 5.37 ± 0.33.

For the sequence ACKSLQTRQNGIQTNKPALRAVRQ [STX5], the protein stability index is, setting by setting: under setting [1], 4.07 ± 0.17; under setting [2], 3.95 ± 0.2.

ACLIVMFLPEKKDTGVFAVVNSHS [SLC22A15]: the protein stability index is, setting by setting: under setting [1], 3.22 ± 0.56; under setting [2], 2.12 ± 0.19.

ACSEGDVNAVRKLLIEGRSVNEHT [ANKRD17] registered a protein stability index under setting [1] of 4.22 ± 0.45 and a protein stability index under setting [2] of 4.64 ± 0.11. On the same counts, the results for AEEAESHFSSIPDAFWWAVVSMTT [KCNA1] are 2.11 ± 0.31 and 2.1 ± 0.24. In the same order, the values of AEFMRNFQKGQVTRDGFKLVMASL [HMOX1] are 2.33 ± 0.75 and 2.26 ± 0.16.

Take AEHNLVLFRKDVDDATLSRLELER [PRPH]: the protein stability index under setting [1] came out at 4.45 ± 0.19 and the protein stability index under setting [2] stood at 4.51 ± 0.16. On the same counts, the results for AEHWKHKKEESGRERKKNWGGQED [PBXIP1] are 5.24 ± 0.37 and 4.96 ± 0.4.

As for AEPAMPGRLYVHPDSPATGAHWMR [TBX5], the protein stability index was determined as 3.5 ± 0.36 under setting [1] and 3.44 ± 0.21 under setting [2]. Consider AFADRDQSERQRHESQQLATETQA [TEKT4], for which the protein stability index by setting is: under setting [1], 5.11 ± 0.16; under setting [2], 5.36 ± 0.31.

As to AFDYIKQRRSMVSPNFGFMGQLLQ [DUSP5], the protein stability index by setting is: under setting [1], 2.14 ± 0.25; under setting [2], 2.27 ± 0.39. In the same order, the values of AFGAPIGGTLFSLEEGSSFWNQGL [CLCN6] are 2.47 ± 0.27 and 2.47 ± 0.35. Under setting [1], AGAGWWVGAAYASLRRRGASAAAR [TRIM14] yielded a protein stability index of 2.88 ± 0.22. In turn, AGGQTRLQASDRYRDLAGGTGRSA [FCHSD1] returned a protein stability index under setting [1] of 4.25 ± 0.41 and a protein stability index under setting [2] of 4.35 ± 0.28. AGLGPGSRRPLDEAVAGAEGREAP [DENND6A] had a protein stability index under setting [1] of 5.39 ± 0.23 and a protein stability index under setting [2] of 5.04 ± 0.39. Take AGRAAAPELSYRVCVGSDVTSIHK [MYORG]: the protein stability index came out at 3.32 ± 0.17 under setting [1] and 3.35 ± 0.24 under setting [2].

As for AGRQSVSGRKNSTSKDLVTLGASS [C6orf223], the protein stability index runs as follows: under setting [1], 4.4 ± 0.16; under setting [2], 4.49 ± 0.13. As for AGSKVKDMAGDWHWALRVTPGLGV [SPNS1], the protein stability index by setting is: under setting [1], 2.07 ± 0.28; under setting [2], 2.1 ± 0.26.

AHEVLQELRDISSMAMEYFDEKIV [FBXO28] registered a protein stability index under setting [1] of 3.14 ± 0.19 and a protein stability index under setting [2] of 3.26 ± 0.45. With AHFSPFLYYQSQELPNGSVKEAPA [PDZK1], the protein stability index by setting is: under setting [1], 3.45 ± 0.13; under setting [2], 3.33 ± 0.13. For AHRGRLNIQAGINENDFYDGAWCA [CPXM2], the protein stability index reads like this: under setting [1], 3.34 ± 0.86; under setting [2], 3.29 ± 0.46. Consider AILRVIRLVRVFRIFKLSRHSKGL [KCNA1], for which the protein stability index under setting [1] was found to be 2.28 ± 0.36 and the protein stability index under setting [2] is 2.46 ± 0.24. AIPITELTKSQVQDKPYKCTDCGK [ZNF8]: the protein stability index runs as follows: under setting [1], 4.25 ± 0.2; under setting [2], 4.3 ± 0.21. Take AIQAFLDKCSAPKIWRTPNGKTIE [IQUB]: the protein stability index came out at 2.36 ± 0.48 under setting [1] and 2.27 ± 0.22 under setting [2]. In the case of AISLTKCLESTKLLADLKKCGDLE [MIA2], the protein stability index by setting is: under setting [1], 2.64 ± 0.57; under setting [2], 2.79 ± 0.69.

As for AKLVPSEREASPSNSCQDSTDTES [IKZF1], the protein stability index is, setting by setting: under setting [1], 5.41 ± 0.41; under setting [2], 5.53 ± 0.24. In the same order, the values of AKPRATWTLKLDGNLQLDCLAQGW [RTP4] are 2.17 ± 0.24 and 2.33 ± 0.57. As to AKSRAEAALEEESRQRQSRMEKGE [SMARCE1], the protein stability index was 5.55 ± 0.22 under setting [1] and 5.38 ± 0.22 under setting [2]. As to ALAHCHQHGLVLRDLKLCRFVFAD [TRIB3], the protein stability index reads like this: under setting [1], 2.44 ± 0.43; under setting [2], 2.23 ± 0.23.

Take ALARLGTVTVISPLELMRTKLQAQ [SLC25A39]: the protein stability index reads like this: under setting [1], 2.18 ± 0.39; under setting [2], 2.15 ± 0.72.

With ALATVSLLSLVTFTFLSAKCLQGN [PCDHGC5], the protein stability index by setting is: under setting [1], 3.2 ± 0.29; under setting [2], 3.16 ± 0.23. With ALCVVDTIKRSSQTGEWQNIAIMT [GFOD1], the protein stability index stood at 2.31 ± 0.24 under setting [1] and 2.2 ± 0.14 under setting [2]. In the same order, the values of ALFKANRLEKAVAAAYTFLQRNPK [P3H4] are 2.48 ± 0.27 and 2.12 ± 0.53. ALGWAPAAPPPLKDDPEGDRDGCV [ZBED3] gave a protein stability index under setting [1] of 5.34 ± 0.17 and a protein stability index under setting [2] of 5.54 ± 0.3. On the same counts, the results for ALHLAARNGHLATVKLLVEEKADV [RIPK4] are 2.85 ± 0.17 and 3.06 ± 0.3. In the same order, the values of ALMHELSNDGARRQFEFYLEEMIL [BTBD10] are 2.24 ± 0.037 and 2.36 ± 0.69. For the sequence ALNFMKGCLKMNPDDRLTCSQLLE [CDKL4], the protein stability index runs as follows: under setting [1], 2.32 ± 0.18; under setting [2], 2.55 ± 0.38. In the same order, the values of ALQAAAHASVDIKDVLDFYKQWKE [SMG5] are 3.19 ± 0.14 and 3.37 ± 0.31. On the same counts, the results for ALSSFREESRFCDAHLVLDGEEIP [GAN] are 4.51 ± 0.18 and 4.59 ± 0.14. As for ANHVFFLLYLLHILLLDGAAWLTL [FADS1], the protein stability index runs as follows: under setting [1], 3.23 ± 0.61; under setting [2], 3.39 ± 0.6.

For the sequence ANYIDGYRKQNAYIATQGSLPETF [PTPRD], the protein stability index by setting is: under setting [1], 2.94 ± 0.25; under setting [2], 3.13 ± 0.45.

In turn, APGVDLSRILNEMRDQYEQMAEKN [KRT16] gave a protein stability index under setting [1] of 4.27 ± 0.35 and a protein stability index under setting [2] of 4.42 ± 0.16. Regarding APLSSRKHVLYVEHRHLNPDTELK [TCF25], the protein stability index reads like this: under setting [1], 3.72 ± 0.35; under setting [2], 3.87 ± 0.51. Consider APWWFWLSLTGVSLAGALGVKFVG [POMT2], for which the protein stability index is 2.48 ± 0.23 under setting [1] and 2.27 ± 0.15 under setting [2].

Consider AQAGTPAPTKPHDYRQEQPETFWI [SPAG8], for which the protein stability index reads like this: under setting [1], 3.54 ± 0.29; under setting [2], 3.59 ± 0.29. On the same counts, the results for AREGAGLVVASGVIYCLGGYDGLN [KLHL12] are 2.81 ± 0.59 and 2.39 ± 0.51.

As for AREGSSEPWLPLTDGRSPRRSRDP [PLEKHN1], the protein stability index came out at 5.17 ± 0.43 under setting [1] and 5.1 ± 0.098 under setting [2]. For ARNGNAEEVRQLLETMARNEVIAD [OSBPL1A], the protein stability index is, setting by setting: under setting [1], 4.11 ± 0.061; under setting [2], 4.07 ± 0.32. In the same order, the values of ASGSVLRLVDAVLGAEIRNGMAII [HDAC6] are 2.91 ± 0.56 and 2.55 ± 0.58. As for ASLQASIFSGAASLGYGTNVAATG [APBB1IP], the protein stability index under setting [1] was determined as 2.95 ± 0.27 and the protein stability index under setting [2] was 2.85 ± 0.33.

With ASLSNQECQLYPRRSQQQQVPVVD [SNURF], the protein stability index by setting is: under setting [1], 4.57 ± 0.14; under setting [2], 4.46 ± 0.24. Sequence ASTEADKRLSRFDIEMSMRGDIFE [NLN] yielded a protein stability index under setting [1] of 4.02 ± 0.57 and a protein stability index under setting [2] of 4.14 ± 0.27.

On to ASVDYIRKLQKEQQRSKDLESRQR [TFE3], for which the protein stability index by setting is: under setting [1], 4.06 ± 0.24; under setting [2], 4.18 ± 0.13. As to ATKSHVDKVIMKLGKTNAKAVSEM [DYNC2LI1], the protein stability index worked out at 3.57 ± 0.21 under setting [1] and 3.51 ± 0.3 under setting [2]. In the same order, the values of ATTAATAAATTTTTTSAATATTAP [SNAP91] are 5.36 ± 0.22 and 5.52 ± 0.22. On the same counts, the results for AVINWVKHAKKEREESLPNLLQYV [KLHL12] are 2.02 ± 0.32 and 2.49 ± 0.54. As for AVIYLGYCFCGWIVLGPYHVKFRS [MCOLN1], the protein stability index was 3.08 ± 1.1 under setting [1] and 2.86 ± 0.52 under setting [2]. On to AVNQKIDRESLCGASTSCLLPVQV [PCDHGC5], for which the protein stability index is, setting by setting: under setting [1], 2.99 ± 0.13; under setting [2], 3.26 ± 0.65. On the same counts, the results for AYTRYLGDLSGGQVLKKIAQKALD [HMOX1] are 2.29 ± 0.19 and 2.23 ± 0.34. For CAPCPRRSEPVVQCQYPSGAEAG [IRX6], the protein stability index (treatment: DMSO, c terminus: native) is 2.67 ± 0.7 and the protein stability index (treatment: MLN4924 1 uM, 8 h, c terminus: native) amounted to 2.3 ± 0.41. CASPVTGPGSKRDAHFCAVCSDYA [ESR2]: the protein stability index is, setting by setting: under setting [1], 3.08 ± 0.22; under setting [2], 3.16 ± 0.29.

In turn, CEYNFVSPSKSFWTRITCAEEGWS [CFHR2] registered a protein stability index under setting [1] of 2.31 ± 0.35 and a protein stability index under setting [2] of 2.05 ± 0.089. Take CGDYFPDGITNGASWYSLSKGMQD [CPN1]: the protein stability index under setting [1] was 2.52 ± 0.12 and the protein stability index under setting [2] stood at 2.74 ± 0.14. For the sequence CGKYFQGRGLKSHAYIHSVQFSHH [USP39], the protein stability index by setting is: under setting [1], 2.37 ± 0.42; under setting [2], 2.04 ± 0.56. Regarding CGPIAGSRQALSFEVPPCNYDPEK, the protein stability index is, setting by setting: under setting [1], 4.24 ± 0.23; under setting [2], 4.13 ± 0.46. Consider CHDKYTKIFNDFKDRMKSDHKRET [ZMYND11], for which the protein stability index by setting is: under setting [1], 4.08 ± 0.28; under setting [2], 3.9 ± 0.28.

For CHSCQLYLPSTEFSVSSTSRRIYR [IQUB], the protein stability index reads like this: under setting [1], 2.45 ± 0.15; under setting [2], 2.73 ± 0.54. On the same counts, the results for CIRLWKYALDMQQSNLEPLSPMTA [FEM1A] are 2.52 ± 0.54 and 2.34 ± 0.35. Regarding CMHEVHTFVSTCQAIDATVAAELL [HES6], the protein stability index under setting [1] is 2.8 ± 0.85 and the protein stability index under setting [2] is 2.34 ± 0.3.
